# Results: US20040147432A1 (MERCK, published 2004)
# Bridges are numbered along the chain shown (N, C = ends). [ ]: non-standard residue; d: D form. The star is where a group is joined. Pentanoyl(5-guanidino) = NC(N)=NCCCCC(=O)*; hArg = N=C(N)NCCCC[C@H](N)C(=O)O; Nle = CCCC[C@H](N)C(=O)O; GABA = NCCCC(=O)O; βAla = NCCC(=O)O
# B1: SEQ. ID. NO. 3 (peptide)
# peptide: Ac-CMLGRVYRPC-NH2
# modifications: disulfide 1-10; not fully specified
# notes: positions numbered as in hMCH; also called ?Arg^6
# B2: SEQ. ID. NO. 4 (peptide)
# peptide: Ac-RCALGRVYRPC-NH2
# modifications: disulfide 2-11
# SMILES: CC(=O)N[C@@H](CCCNC(=N)N)C(=O)N[C@H]1CSSC[C@@H](C(N)=O)NC(=O)[C@@H]2CCCN2C(=O)[C@H](CCCNC(=N)N)NC(=O)[C@H](Cc2ccc(O)cc2)NC(=O)[C@H](C(C)C)NC(=O)[C@H](CCCNC(=N)N)NC(=O)CNC(=O)[C@H](CC(C)C)NC(=O)[C@H](C)NC1=O
# notes: also called Ala^8
# B3: SEQ. ID. NO. 27 (peptide)
# peptide: Ac-RCMLGRVFRPC-NH2
# modifications: disulfide 2-11
# SMILES: CSCC[C@@H]1NC(=O)[C@@H](NC(=O)[C@H](CCCNC(=N)N)NC(C)=O)CSSC[C@@H](C(N)=O)NC(=O)[C@@H]2CCCN2C(=O)[C@H](CCCNC(=N)N)NC(=O)[C@H](Cc2ccccc2)NC(=O)[C@H](C(C)C)NC(=O)[C@H](CCCNC(=N)N)NC(=O)CNC(=O)[C@H](CC(C)C)NC1=O
# notes: also called Phe^13
# B4: SEQ. ID. NO. 10 (peptide)
# peptide: Ac-RCMLSRVYRPC-NH2
# modifications: disulfide 2-11
# SMILES: CSCC[C@@H]1NC(=O)[C@@H](NC(=O)[C@H](CCCNC(=N)N)NC(C)=O)CSSC[C@@H](C(N)=O)NC(=O)[C@@H]2CCCN2C(=O)[C@H](CCCNC(=N)N)NC(=O)[C@H](Cc2ccc(O)cc2)NC(=O)[C@H](C(C)C)NC(=O)[C@H](CCCNC(=N)N)NC(=O)[C@H](CO)NC(=O)[C@H](CC(C)C)NC1=O
# notes: also called Ser^10
# B5: SEQ. ID. NO. 23 (peptide)
# peptide: Ac-RCMLGAVYRPC-NH2
# modifications: disulfide 2-11
# SMILES: CSCC[C@@H]1NC(=O)[C@@H](NC(=O)[C@H](CCCNC(=N)N)NC(C)=O)CSSC[C@@H](C(N)=O)NC(=O)[C@@H]2CCCN2C(=O)[C@H](CCCNC(=N)N)NC(=O)[C@H](Cc2ccc(O)cc2)NC(=O)[C@H](C(C)C)NC(=O)[C@H](C)NC(=O)CNC(=O)[C@H](CC(C)C)NC1=O
# notes: also called Ala^11
# B6: SEQ. ID. NO. 7 (peptide)
# peptide: Ac-RCMLARVYRPC-NH2
# modifications: disulfide 2-11
# SMILES: CSCC[C@@H]1NC(=O)[C@@H](NC(=O)[C@H](CCCNC(=N)N)NC(C)=O)CSSC[C@@H](C(N)=O)NC(=O)[C@@H]2CCCN2C(=O)[C@H](CCCNC(=N)N)NC(=O)[C@H](Cc2ccc(O)cc2)NC(=O)[C@H](C(C)C)NC(=O)[C@H](CCCNC(=N)N)NC(=O)[C@H](C)NC(=O)[C@H](CC(C)C)NC1=O
# notes: also called Ala^10
# Experiments:
# human MCH-1R [1] = target: T1, human MCH-1R (human, UniProt Q99705 1-353); assay: cell-based or functional assay
# T1 sequence (Q99705 whole entry, form in doubt): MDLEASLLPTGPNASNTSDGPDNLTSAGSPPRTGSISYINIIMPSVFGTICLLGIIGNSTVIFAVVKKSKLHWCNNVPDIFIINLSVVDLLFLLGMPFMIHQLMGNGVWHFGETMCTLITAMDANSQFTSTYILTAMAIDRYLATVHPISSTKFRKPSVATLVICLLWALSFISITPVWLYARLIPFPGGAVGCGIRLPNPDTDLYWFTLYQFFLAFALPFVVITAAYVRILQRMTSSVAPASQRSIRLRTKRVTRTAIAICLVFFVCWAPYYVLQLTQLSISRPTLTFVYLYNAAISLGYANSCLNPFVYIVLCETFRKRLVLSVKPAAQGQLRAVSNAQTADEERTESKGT
# [2] = target: T2, human melanin concentrating hormone type 2 receptor (MCH-2R) (human, UniProt Q969V1 1-340); assay: cell-based or functional assay
# T2 sequence (Q969V1 whole entry, form in doubt): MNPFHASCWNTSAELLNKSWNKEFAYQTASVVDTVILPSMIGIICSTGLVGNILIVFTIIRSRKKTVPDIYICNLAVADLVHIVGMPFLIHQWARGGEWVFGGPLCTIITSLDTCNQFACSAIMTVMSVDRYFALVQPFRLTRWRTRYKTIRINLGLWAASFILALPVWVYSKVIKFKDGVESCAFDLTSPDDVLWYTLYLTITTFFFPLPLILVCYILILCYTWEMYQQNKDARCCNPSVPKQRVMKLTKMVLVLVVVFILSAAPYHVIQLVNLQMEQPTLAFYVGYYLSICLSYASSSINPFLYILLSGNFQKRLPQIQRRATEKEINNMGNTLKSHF
# human MCH-1R [3] = target: T1, human MCH-1R; assay: SPA competition with [125I]-human MCH (Phe13, Tyr19) on receptor membranes
# Protocol: (§1) For the SPA-based assay, WGA-PVT beads (NEN Life Sciences Products) were resuspended in Dulbecco's PBS with calcium and magnesium (500 mg beads in 4 ml PBS). […] The suspension was mixed gently for 20 minutes, 12.3 ml of assay buffer and protease inhibitors were added (final concentration given): 2 μg/ml leupeptin, 10 μM phosphoramidon, 40 μg/ml bacitracin, 5 μg/ml aprotinin, 0.1 mM Pefabloc.
# (§2) Coated beads were kept on ice until use. […] Binding reactions were allowed to proceed at room temperature for 3 hours. Quantitation was performed by scintillation counting (TopCount device).
# [4] = target: T2, human melanin concentrating hormone …; assay: as above
# Protocol: as §1, §2
Binder,Activation % at 10 µM (aequorin functional assay) (human MCH-1R [1]) [%],Activation % at 10 µM (aequorin functional assay) [2] [%],EC50 (aequorin functional assay) [2] [nM],EC50 (aequorin functional assay) (human MCH-1R [1]) [nM],% @ concentration (human MCH-1R [3]),IC50 (human MCH-1R [3]) [nM],% @ concentration [4] [% @ 10 µM],IC50 [4] [nM]
RCMLXRVYRPC (Sar^10 (sarcosine)) [SEQ. ID. NO. 6],95,94,40,–,–,–,–,–
"RCALXRVYRPC (not fully specified; D-Ala^10, also called Ala^8, D-Ala^10) [SEQ. ID. NO. 35]",–,120,140,> 10000,70 % @ 1 µM,–,–,–
RCMLGRVXRPC ((2)Nal^13 ((2')naphthylalanine)) [SEQ. ID. NO. 28],105,90,19,–,–,–,–,–
B1,6.5,–,1500,300,–,1.6,38.5,–
RCMLXRVYRPC (D-Leu^10) [SEQ. ID. NO. 14],23,83,–,–,–,–,–,–
"RCXLGRVYRPC (Nle^8 (norleucine), also called Nle^8) [SEQ. ID. NO. 5]",105,105,12,–,–,0.5,–,–
RCMLXRVYRPC (Nle^10 (norleucine)) [SEQ. ID. NO. 9],106,103,16,15,–,–,–,–
B2,42,104,12,4100,–,15,–,18
B3,96,94,12,46,–,1,–,1.5
RCMLLRVYRPC (also called Leu^10) [SEQ. ID. NO. 8],106,80,54,23,–,0.06,–,20
B4,104,95,44,65,–,0.32,–,52
B5,–,36,> 1000,> 10000,–,–,–,9.7
B6,104,97,7.7,31,–,0.59,–,4.6
"Ac-RCML[GABA]RVYRPC-NH2 (disulfide 2-11 (inferred), also called εAbu^10) [SEQ. ID. NO. 21]",101,112,–,–,–,2.1,–,–
RCMLGXVYRPC (N-Me-Arg^11) [SEQ. ID. NO. 22],110,86,–,–,–,–,–,–
"RCMLGRVXRPC (Phe(pF)^13, also called Phe(pF)^13) [SEQ. ID. NO. 29]",98,100,–,–,–,0.6,–,–
"Ac-RCMLG[Nle]VYRPC-NH2 (disulfide 2-11 (inferred), also called Nle^11) [SEQ. ID. NO. 26]",–,34,58,> 1000,–,301,–,9
Ac-RCML[βAla]RVYRPC-NH2 (disulfide 2-11 (inferred)) [SEQ. ID. NO. 20],3.2,92,–,> 1000,–,–,–,–
RCMLGRVXRPC (Phe(pNH2)^13) [SEQ. ID. NO. 30],88,70,24,–,–,–,–,–
"Ac-RCML[dA][hArg]VYRPC-NH2 (disulfide 2-11 (inferred), also called D-Ala^10, Harg^11) [SEQ. ID. NO. 36]",0.1,74,19,> 10000,–,56,–,0.9
"RCALXXVYRPC (D-Ala^10, Harg^11 (homoarginine), also called Ala^8, D-Ala^10, Harg^11) [SEQ. ID. NO. 38]",20,49,730,> 10000,83 % @ 10 µM,–,–,–
"RCMLGRVYRPX (D-Cys^16, also called D-Cys^16) [SEQ. ID. NO. 33]",76,90,–,–,–,–,–,2.3
"[Pentanoyl(5-guanidino)]CML[dA]RVYRPC-NH2 (disulfide 2-11 (inferred); not fully specified, also called (?-NH2)-Arg^6, D-Ala^10) [SEQ. ID. NO. 34]",4,110,31,2000,–,30,–,250
RCMLGRVYRXC (Sar^15 (sarcosine)) [SEQ. ID. NO. 32],113,91,12,–,–,–,–,–
"RCMLXRVYRPC (D-Nle^10, also called D-Nle^10) [SEQ. ID. NO. 15]",33,78,–,–,–,–,–,2.3
"RCMLGRVXRPC (Cha^13 (2-cyclohexyl-alanine), also called Cha^13) [SEQ. ID. NO. 31]",93,76,–,–,–,–,–,9
